PMC7954794, “Protein context shapes the specificity of SH3 domain-mediated interactions in vivo” (Nature Communications, 2021)

System: Abp1 PPIs
Experiment: DHFR-PCA of Abp1 SH3-swapped baits (Fig. 2B-D, S2C, S2F)
Type: cell-based, Saccharomyces cerevisiae
Settings: Fig2B; bait ABP1, label = prey; Replicates 4
Outline: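 Interactions were scored by DHFR protein-fragment complementation. DHFR F[1,2]-tagged Abp1 strains, whose SH3 was swapped for yeast or human ortholog domains, were crossed on YPD at 30 °C for 48 h with a 1536-format array of 575 prey-DHFR F[3] strains and 40 negatives, giving four replicates per pair. PCA selection lasted 4 days after double diploid selection.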

B1: YBL039C (protein, UniProt P28274 1-579, looked up)
CTP synthase 1: MKYVVVSGGVISGIGKGVLASSTGMLMKTLGLKVTSIKIDPYMNIDAGTMSPLEHGECFVLDDGGETDLDLGNYERYLGVTLTKDHNITTGKIYSHVIAKERKGDYLGKTVQIVPHLTNAIQDWIERVAKIPVDDTGMEPDVCIIELGGTVGDIESAPFVEALRQFQFKVGKENFALIHVSLVPVIHGEQKTKPTQAAIKGLRSLGLVPDMIACRCSETLDKPTIDKIAMFCHVGPEQVVNVHDVNSTYHVPLLLLEQKMIDYLHARLKLDEISLTEEEKQRGLELLSKWKATTGNFDESMETVKIALVGKYTNLKDSYLSVIKALEHSSMKCRRKLDIKWVEATDLEPEAQESNKTKFHEAWNMVSTADGILIPGGFGVRGTEGMVLAARWARENHIPFLGVCLGLQIATIEFTRSVLGRKDSHSAEFYPDIDEKNHVVVFMPEIDKETMGGSMRLGLRPTFFQNETEWSQIKKLYGDVSEVHERHRHRYEINPKMVDELENNGLIFVGKDDTGKRCEILELKNHPYYIATQYHPEYTSKVLDPSKPFLGLVAASAGILQDVIEGKYDLEAGENKFNF
For B1, the “medrep (log2 median colony size normalized to plate background)” value was 3.877.
